These results are taken from article PMC12060060 (Investigative Ophthalmology & Visual Science, 2025).

The series deals with the molecule itself. As to the kind of experiment: dynamic light scattering.

B1: Q147E deamidated αA-crystallin (recombinant human) (natural protein, UniProt P02489 1-173, looked up)
chain: MDVTIQHPWFKRTLGPFYPSRLFDQFFGEGLFEYDLLPFLSSTISPYYRQSLFRTVLDSGISEVRSDRDKFVIFLDVKHFSPEDLTVKVQDDFVEIHGKHNERQDDHGYISREFHRRYRLPSNVDQSALSCSLSADGMLTFCGPKIETGLDATHAERAIPVSREEKPTSAPSS
B1: the binding result is “binds”.
